Series [1] concerns the target T1, SOX9 D-HMG (high solubility variant) (Homo sapiens) (UniProt P48436).
T1 sequence: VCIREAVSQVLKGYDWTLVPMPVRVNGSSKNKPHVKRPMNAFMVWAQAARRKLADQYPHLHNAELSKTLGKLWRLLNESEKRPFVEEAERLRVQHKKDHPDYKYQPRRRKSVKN
Description: EMSA. Conditions: 10 mM sodium phosphate pH 6.0, 100 mM NaCl, 5 mM EDTA, on ice 30 min (1 h for 32P titrations); 9 nM DNA for Kd, 2 uM DNA for SYBR Green EMSA.

The target in series [2] is T2, SOX9 HMG (Homo sapiens, UniProt P48436 110-184). The experiment in a line: EMSA; Hill 1.6 ± 0.5; 10 mM sodium phosphate pH 6.0, 100 mM NaCl, 5 mM EDTA, on ice 30 min (1 h for 32P titrations); 9 nM DNA for Kd, 2 uM DNA for SYBR Green EMSA. The following applies: protein: recombinant; tags: 6xHis; label: 32P 5'; blunt.
The next series has as its target SOX9 D-HMG A119E (Homo sapiens, UniProt P48436 71-184, A119E). The experiment in a line: EMSA; dimerization lost; single and double occupancy bands; 10 mM sodium phosphate pH 6.0, 100 mM NaCl, 5 mM EDTA, on ice 30 min (1 h for 32P titrations); 9 nM DNA for Kd, 2 uM DNA for SYBR Green EMSA. Conditions: protein: recombinant; tags: 6xHis; chain copies: 2; label: 32P 5' for Kd; unlabeled (SYBR Green) in mutant EMSA; blunt; self-complementary, 2 copies of one strand.

Another series has as its target SOX9 D-HMG L142Q (Homo sapiens, UniProt P48436 71-184, L142Q). Described as above. The following applies: protein: recombinant; tags: 6xHis; chain copies: 2; label: 32P 5' for Kd; unlabeled (SYBR Green) in mutant EMSA; blunt; self-complementary, 2 copies of one strand.
The target of another series is SOX9 D-HMG L145E (Homo sapiens, UniProt P48436 71-184, L145E). The experiment in a line: EMSA; dimerization retained; 10 mM sodium phosphate pH 6.0, 100 mM NaCl, 5 mM EDTA, on ice 30 min (1 h for 32P titrations); 9 nM DNA for Kd, 2 uM DNA for SYBR Green EMSA. Conditions: protein: recombinant; tags: 6xHis; chain copies: 2; label: 32P 5' for Kd; unlabeled (SYBR Green) in mutant EMSA; blunt; self-complementary, 2 copies of one strand.

The target in another series is SOX9 D-HMG A118E (Homo sapiens, UniProt P48436 71-184, A118E). Described as above. Conditions: protein: recombinant; tags: 6xHis; chain copies: 2; label: 32P 5' for Kd; unlabeled (SYBR Green) in mutant EMSA; blunt; self-complementary, 2 copies of one strand.
The target of series [3] is T2, SOX9 HMG. The experiment in a line: EMSA; Hill 2.2 ± 0.4; 10 mM sodium phosphate pH 6.0, 100 mM NaCl, 5 mM EDTA, on ice 30 min (1 h for 32P titrations); 9 nM DNA for Kd, 2 uM DNA for SYBR Green EMSA. The following applies: protein: recombinant; tags: 6xHis; label: 32P 5' for Kd; unlabeled (SYBR Green) in mutant EMSA; blunt; self-complementary, 2 copies of one strand.

As for “GGGATCCTACACAAAGCCGGCTTTGTGTAGGATCCC (double strand) [CC36]”, the Kd in series [1] turned out to be 0.098 µM.

On to “GGGTTAACAGAACAATGGAATCTGGTAGA (double strand) [S9WT]”, for which the Kd in series [1] came out at 0.082 µM.

B1: S9WT (dsDNA)
DNA 1: GGGTTAACAGAACAATGGAATCTGGTAGA
DNA 2: TCTACCAGATTCCATTGTTCTGTTAACCC
Take B1: the Kd with SOX9 HMG [2] came to 0.101 ± 0.033 µM.

B2: CC36 (dsDNA)
DNA 1: GGGATCCTACACAAAGCCGGCTTTGTGTAGGATCCC
DNA 2: GGGATCCTACACAAAGCCGGCTTTGTGTAGGATCCC
With B2, the binding result with SOX9 D-HMG A119E, in the series with SOX9 D-HMG L142Q, in the series with SOX9 D-HMG L145E and in the series with SOX9 D-HMG A118E was “binds” in each case. Further, the Kd in the series with SOX9 HMG [3] was 0.109 ± 0.01 µM.
